The target in assay [1] is T1, recombinant human FcγRIIA (CD32a) R167 (human, UniProt P12318 36-218).
T1 sequence (looked up): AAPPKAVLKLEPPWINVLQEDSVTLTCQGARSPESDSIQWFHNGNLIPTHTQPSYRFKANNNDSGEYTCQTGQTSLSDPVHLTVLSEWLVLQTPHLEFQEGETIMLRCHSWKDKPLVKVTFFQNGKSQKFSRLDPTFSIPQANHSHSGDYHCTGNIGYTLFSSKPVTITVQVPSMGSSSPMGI
In words: SPR, Biacore T200; Fc receptor captured on anti-His antibody, antibody injected. An excerpt: (§1) ADCC is initiated when an antibody binds to a cell surface target protein and then links to an Fc γ receptor (FcγR) expressed on effector cells. […] In conjunction with ADCC, CDC is activated when antibodies cross-link the cell surface target and C1q protein, followed by a cascade reaction of complement complex formation and target cell lysis. As a proxy for ADCC and CDC, the detection of antibody binding to FcγR and C1q may serve as basic indicators of ADCC and CDC. Thus, in the present invention, the kinetic binding affinity of monoclonal antibodies for major FcγRs was evaluated using biacore T200 (GE).
(§2) Anti-His antibody (GE) was immobilized on the sensor wafer. Various Fc receptors, including recombinant human FcγRIIIA (CD16a) V176, recombinant human FcγRIIA (CD32a) R167, recombinant human FcγRI (CD64) and recombinant human FcRn were captured, then a series of diluted recombinant human anti-BTLA antibodies (i.e., hu18) were injected, and the binding properties of the interactions were assayed and analyzed. hu18 is an IgG4 subtype, and hu18-IgG1 is an IgG1 subtype that shares the same Fab as hu18 and serves as a positive control.
(In general: In SPR one partner is held on a chip, and binding of the other changes the refractive index at the surface.)

The target in assay [2] is recombinant human FcγRIIIA (CD16a) V176 (human, UniProt P08637 17-208). The description is as above.
Sequence of recombinant human FcγRIIIA (CD16a) V176 (P08637 17-208 F176V): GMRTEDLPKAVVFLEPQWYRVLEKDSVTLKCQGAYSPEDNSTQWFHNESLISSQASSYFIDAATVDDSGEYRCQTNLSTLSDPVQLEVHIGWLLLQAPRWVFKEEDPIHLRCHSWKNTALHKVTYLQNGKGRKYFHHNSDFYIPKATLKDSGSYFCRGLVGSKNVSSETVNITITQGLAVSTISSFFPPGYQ
Text: as §1, §2

Assay [3] has as its target recombinant human FcγRI (CD64) (human, UniProt P12314 16-288). The assay is described as above.
Text: as §1, §2

The target in another assay is T2, recombinant human FcRn (human, UniProt P55899 24-297; P61769 21-119).
T2 construct: Captured on an anti-His antibody
T2 sequence (P55899 24-297 limits assumed, form in doubt, chain 1 of 2): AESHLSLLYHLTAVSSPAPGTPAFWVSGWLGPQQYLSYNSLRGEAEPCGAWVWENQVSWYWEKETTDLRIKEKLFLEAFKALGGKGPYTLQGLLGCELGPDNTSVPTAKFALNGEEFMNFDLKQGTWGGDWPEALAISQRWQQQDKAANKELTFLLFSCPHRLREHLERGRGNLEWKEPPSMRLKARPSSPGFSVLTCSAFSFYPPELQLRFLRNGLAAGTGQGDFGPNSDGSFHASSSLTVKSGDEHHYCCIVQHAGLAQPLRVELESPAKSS
T2 sequence (P61769 21-119 limits assumed, form in doubt, chain 2 of 2): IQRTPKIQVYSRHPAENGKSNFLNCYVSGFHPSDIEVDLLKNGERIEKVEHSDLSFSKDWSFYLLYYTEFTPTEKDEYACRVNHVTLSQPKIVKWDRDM
The description is as above.
Text: as §1, §2

For a further assay, the target named is T3, human C1q (human, UniProt P02745 23-245; P02746 28-253; P02747 29-245).
T3 construct: also called C1q protein
T3 sequence (P02745 23-245 limits assumed, chain 1 of 3): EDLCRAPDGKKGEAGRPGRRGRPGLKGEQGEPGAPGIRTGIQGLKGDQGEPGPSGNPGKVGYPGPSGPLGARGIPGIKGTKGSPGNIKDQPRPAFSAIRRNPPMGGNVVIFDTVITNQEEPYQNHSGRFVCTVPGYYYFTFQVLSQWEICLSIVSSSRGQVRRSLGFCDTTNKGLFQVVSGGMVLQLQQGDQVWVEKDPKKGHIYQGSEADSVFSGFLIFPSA
T3 sequence (P02746 28-253 limits assumed, chain 2 of 3): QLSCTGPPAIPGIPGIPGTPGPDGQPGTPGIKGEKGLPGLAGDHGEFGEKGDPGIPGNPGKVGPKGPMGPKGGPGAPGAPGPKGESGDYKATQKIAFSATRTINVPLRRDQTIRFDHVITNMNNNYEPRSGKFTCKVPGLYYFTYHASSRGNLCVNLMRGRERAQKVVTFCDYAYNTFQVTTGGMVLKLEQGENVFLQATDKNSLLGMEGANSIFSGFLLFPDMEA
T3 sequence (P02747 29-245 limits assumed, chain 3 of 3): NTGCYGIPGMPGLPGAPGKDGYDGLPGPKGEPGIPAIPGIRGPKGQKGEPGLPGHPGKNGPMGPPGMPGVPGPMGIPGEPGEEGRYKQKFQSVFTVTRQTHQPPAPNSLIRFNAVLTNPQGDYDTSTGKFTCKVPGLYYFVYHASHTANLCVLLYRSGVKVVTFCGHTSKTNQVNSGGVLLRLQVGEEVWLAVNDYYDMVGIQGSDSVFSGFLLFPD
In words: C1q binding assay, method not described (Table 18: 'Non-specific binding').

A further assay has as its target hBTLA expressed on cells (human, UniProt Q7Z6A9 31-289). Kind of assay: cell-based or functional assay.
In another assay the target is T4, murine BTLA (murine, UniProt Q7TSA3 30-183, limits assumed).
T4 sequence (looked up): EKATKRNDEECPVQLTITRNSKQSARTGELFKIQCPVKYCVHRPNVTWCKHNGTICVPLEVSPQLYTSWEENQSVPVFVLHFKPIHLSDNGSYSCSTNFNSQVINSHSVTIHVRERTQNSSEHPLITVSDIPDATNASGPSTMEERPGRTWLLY
In words: OD 450 nm against log ng/mL of antibody (ELISA-type readout as drawn; Example 11 describes a Fortebio/SPR chip assay with BTLA coupled to the chip). On the technique in general: ELISA stands for enzyme-linked immunosorbent assay.

Sequence of recombinant human FcγRI (CD64) (P12314 16-288 limits assumed): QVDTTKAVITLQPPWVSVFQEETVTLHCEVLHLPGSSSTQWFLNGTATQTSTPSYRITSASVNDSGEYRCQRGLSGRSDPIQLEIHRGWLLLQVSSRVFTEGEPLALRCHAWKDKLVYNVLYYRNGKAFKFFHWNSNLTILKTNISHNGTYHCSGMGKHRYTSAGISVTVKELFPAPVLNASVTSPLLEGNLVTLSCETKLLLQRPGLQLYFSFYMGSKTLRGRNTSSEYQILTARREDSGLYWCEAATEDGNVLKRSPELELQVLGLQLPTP

B1: recombinant humanized anti-BTLA monoclonal antibody hu18 (antibody, human IgG4 S228P, kappa)
heavy: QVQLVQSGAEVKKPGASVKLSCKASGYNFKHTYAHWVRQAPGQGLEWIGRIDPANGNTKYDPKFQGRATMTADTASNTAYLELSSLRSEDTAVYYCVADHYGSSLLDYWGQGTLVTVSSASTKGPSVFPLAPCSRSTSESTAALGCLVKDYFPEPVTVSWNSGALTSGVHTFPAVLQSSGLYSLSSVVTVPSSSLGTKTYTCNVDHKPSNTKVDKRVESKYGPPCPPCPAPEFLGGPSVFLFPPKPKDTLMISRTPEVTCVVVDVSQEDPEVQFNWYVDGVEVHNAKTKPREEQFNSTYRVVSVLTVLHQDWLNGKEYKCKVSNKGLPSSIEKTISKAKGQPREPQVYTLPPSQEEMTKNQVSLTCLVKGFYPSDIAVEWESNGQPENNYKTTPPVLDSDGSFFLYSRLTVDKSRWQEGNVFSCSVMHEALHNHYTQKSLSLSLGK
light: DVVMTQTPLSLSVTPGQPASISCKSSQSLLDSDGKTYLNWFQQRPGQSPRRLIYLVSKLDSGVPDRFSGSGSGTDFTLKISRVEAEDVGVYYCWQGTYFPYTFGQGTKLEIKRTVAAPSVFIFPPSDEQLKSGTASVVCLLNNFYPREAKVQWKVDNALQSGNSQESVTEQDSKDSTYSLSSTLTLSKADYEKHKVYACEVTHQGLSSPVTKSFNRGEC
notes: also called recombinant human anti-BTLA antibody of the IgG4 subtype
In general, Kd refers to a measure of binding affinity in units of concentration. Broadly, the koff is the first-order rate constant of dissociation. As a reminder, the kon is the rate constant with which the complex forms. On to B1, for which, in assay [1], the Kd worked out at 40.6 µM. Moreover, in assay [2], the Kd is 60.2 µM and the “fold weaker interaction than the control antibody of the IgG1 subtype (hu18-IgG1)” value was 400 fold. Besides, in assay [3], the Kd is 0.0184 µM, the koff was found to be 0.00387 s⁻¹ and the kon was determined as 210000 M⁻¹ s⁻¹. In the assay with recombinant human FcRn, the Kd came to 0.138 µM, the koff worked out at 0.0708 s⁻¹ and the kon worked out at 512000 M⁻¹ s⁻¹. Also, in the assay with human C1q, the binding result is “no binding”. For the same molecule, in the assay with hBTLA expressed on cells, the “EC50 (ng/mL); NFAT-luciferase luminescence of Jurkat hPD-1/hBTLA report cells co-cultured with CHO cells expressing hPD-L1/hHVEM” value (“EC50 (ng/mL)” below) was 277 ng/mL.

B2: humanized anti-BTLA antibody hu17 (antibody, V domains shown)
VH: QVQLVQSGAEVKKPGASVKLSCKASGYNFKHTYAHWVRQAPGQGLEWIGRIDPANGNTKYDPKFQGRATMTADTASNTAYLELSSLRSEDTAVYYCVADHYGSSLLDYWGQGTLVTVSS
VL: DIVMTQTPLSLSVTPGQPASISCKSSQSLLDSDGKTYLNWFQQRPGQSPRRLIYLVSKLDSGVPDRFSGSGSGTDFTLKISRVEAEDVGVYYCWQGTYFPYTFGQGTKLEIK
notes: Called a full humanized antibody; also called hul7; hull
As for B2, in the assay with hBTLA expressed on cells, the “EC50 (ng/mL)” value was found to be 257 ng/mL. The binding result with murine BTLA is reported as “no binding (tested: 1000 ng/mL (log 3))”.

B3: humanized anti-BTLA antibody hu19 (antibody, V domains shown)
VH: QVQLVQSGAEVKKPGASVKLSCKASGYNFKHTYAHWVRQAPGQGLEWIGRIDPANGNTKYDPKFQGRATMTADTASNTAYLELSSLRSEDTAVYYCVADHYGSSLLDYWGQGTLVTVSS
VL: DIVMTQTPLSLSVTPGQPASISCKSSQSLLDSDGKTYLNWFQQRPGQSPRRLMHLVSKLDSGVPDRFSGSGSGTDFTLKISRVEAEDVGVYYCWQGTYFPYTFGQGTKLEIK
Regarding B3, the “EC50 (ng/mL)” value with hBTLA expressed on cells came to 290 ng/mL.

For the origin of these results see patent publication US20230192854A1 (SHANGHAI JUNSHI BIOSCIENCES, published 2023).
